Key:
[1] = Daily caloric intake and body weight of SPX-treated mice at RT or cold; type: in vivo; conditions: for body weight change: C × S p < 0.05
Protocol: (§1) Normal adult male C57BL/6 mice (four months of age) were kept in a temperature-controlled environment (20–22 °C and a fixed 12 h light/12 h dark cycle; lights on at 07:00 h) and fed ad libitum with Purina commercial rat/mouse chow (Ganave, Buenos Aires, Argentina, L0723/1). Mice were injected with SPX or PBS (29 µg/kg/day, Tocris, Bristol, UK) for ten days (the SPX and CTR groups, respectively). On the third day of the protocol, each group was subdivided into two other groups: one exposed to cold (4 °C, CTR-C and SPX-C, n = 12 mice for each group) and another one housed at RT (CTR and SPX, n = 15 mice for each group) (Figure 1). Food intake and body weight were measured every day. On the experimental day (day 10), the mice were euthanized under non-fasting conditions (08:00 to 09:00 h), and their trunk blood was collected; plasma samples were then frozen (–80 °C) until the metabolite measurement. Inguinal AT (IAT, subcutaneous depot), epididymal AT (EAT, visceral depot), and brown AT (BAT, subcutaneous depot) were aseptically dissected and weighed. These depots were kept at –80 °C for further procedures. Animals were euthanized according to protocols for animal use, in agreement with the NIH guidelines for the care and use of experimental animals. All experiments were approved by our Institutional Animal Care Committee (Approval code: 6NE-2023).

[2] = Adipose tissue depot mass percentage; type: in vivo, mice; conditions: SPX 29 µg/kg/day ten days, cold (4 °C); SPX-C relative to CTR and CTR-C; C × S p < 0.05
Protocol: as §1

[3] = Plasma glucose and triglyceride levels (commercial kits); type: in vivo, mice; conditions: SPX 29 µg/kg/day ten days, RT or cold; non-fasting; n = 6–7
Protocol: as §1, with “Animals were euthanized according to protocols for animal use, in agreement with the NIH guidelines for the care and use of experimental animals. All experiments were approved by our Institutional Animal Care Committee (Approval code: 6NE-2023).” left out
Circulating glucose (Glu) and triglyceride (Tg) levels were measured using commercial kits (Wiener Lab., Rosario, Argentina). Plasma SPX was measured using a commercial ELISA kit (SPX: Phoenix pharmaceutical EK-023-81).

ucp1 = assay: UCP1 protein expression in EAT and IAT (Western blot); type: in vivo, mice
Protocol: as §1, with “Inguinal AT (IAT, subcutaneous depot), epididymal AT (EAT, visceral depot), and brown AT (BAT, subcutaneous depot) were aseptically dissected and weighed. These depots were kept at –80 °C for further procedures. Animals were euthanized according to protocols for animal use, in agreement with the NIH guidelines for the care and use of experimental animals. All experiments were approved by our Institutional Animal Care Committee (Approval code: 6NE-2023).” left out
For protein analysis by Western blot, IAT and EAT were lysed in a RIPA buffer supplemented with a protease and phosphatase inhibitor cocktail. Protein contents were quantified with the bicinchoninic acid method (Thermo Scientific, Pierce™ BCA Protein Assay Kit). […] Finally, relative protein levels were calculated using Image J Fiji software 1.54f.

mitochondrial DNA = assay: Mitochondrial DNA content quantification (qPCR); type: in vivo, mice
Protocol: as §1, with “Inguinal AT (IAT, subcutaneous depot), epididymal AT (EAT, visceral depot), and brown AT (BAT, subcutaneous depot) were aseptically dissected and weighed. These depots were kept at –80 °C for further procedures. Animals were euthanized according to protocols for animal use, in agreement with the NIH guidelines for the care and use of experimental animals. All experiments were approved by our Institutional Animal Care Committee (Approval code: 6NE-2023).” left out
Tissue from the EAT and IAT depots were homogenized with lysis buffer (40 mM EDTA, 50 mM NaCl, 100 mM Tris, 0.2% SDS) in PBS (2:1) and, for DNA fragmentation, samples were sonicated (38 kHz ± 10% for 5–10 s). […] Finally, the DNA was dissolved in TE buffer and quantified by Nanodrop at 260 nm. […] The relative changes in the DNA mitochondrial content were calculated by 2[2, −ΔΔCt] […]

galr2 = galr2 mRNA expression in AT depots (qRT-PCR); type: in vivo, mice; conditions: RT and cold
Protocol: as §1
Total RNA was isolated from cells by the Trizol extraction method (Invitrogen, Life Technology, Waltham, MA, USA) and reverse-transcribed using random primers (250 ng) and RevertAid Reverse Transcriptase (200 U/µL, Thermo Scientific, Waltham, MA, USA). […] The expression levels were analyzed for β-actin (βactin, […] gene), Uncoupling Protein 1 (ucp1), proliferator-activated receptor gamma coactivator-1 alpha (pgc1α), cytochrome-c oxidase subunit 8b (cox8b), galanin receptors 2 and 3 (galr2 and galr3, respectively), and Spexin (spx). […] The relative changes in the expression level of each gene (ΔΔCt) were calculated by the ΔCt method.

ucp1, pgc1α, and prdm16 = conditions: obese female mice treated with SPX for 50 days; cited from earlier work
Source text: (§2) Little is known about the role of SPX in thermogenesis. […] In the liver, results are contradictory. While one study has shown that SPX decreases pgc1α expression both in vivo and in vitro [26], another study has shown the opposite effect. Thus, the aim of this study was to evaluate the role of SPX during WAT thermogenesis under both room temperature (RT) and cold-stimul ...

β3-adrenergic receptors = conditions: obese female mice treated with SPX for 50 days; cited from earlier work
Source text: as §2

B1: Spexin (peptide, UniProt Q9BT56 27-116, looked up)
Spexin: APQRLLERRNWTPQAMLYLKGAQGRRFISDQSRRKDLSDRPLPERRSPNPQLLTIPEAATILLASLQKSPEDEEKNFDQTRFLEDSLLNW
modifications: Spexin
notes: novel adipokine, a peptide of 14 amino acids of the galanin family; purchased from Tocris
With B1 the “correlation between initial body weight and body weight loss after SPX treatment” value ([1]; SPX and SPX-C mice, basal and cold-stimulated conditions, Pearson correlation, p < 0.01) was “significant positive correlation”, the caloric intake ([1]; male C57BL/6 mice, SPX 29 µg/kg/day for ten days, RT or cold (4 °C) from day 3, vs. CTR, repeated measures ANOVA, n = 6–9) was “no differences were observed due to the SPX treatment” and the body weight change ([1]; male C57BL/6 mice, SPX 29 µg/kg/day for ten days, basal conditions (RT), SPX vs. CTR) was “lost body weight vs. CTR ones”. The body weight change ([1]; male C57BL/6 mice, SPX 29 µg/kg/day for ten days, cold (4 °C) from day 3, SPX-C vs. CTR-C) was “lost less weight than their CTR-C counterparts”, the BAT mass percentage [2] was “intermediate value” and the “plasma Tg levels” value [3] was “did not change”. For the same molecule, the plasma glucose levels [3] was “did not change”, the “UCP1 protein levels in EAT (Western blot)” value (ucp1; basal and cold conditions, p < 0.05, n = 4–6) was “reduced the UCP1 protein levels at both basal and cold conditions” and the “UCP1 protein levels in IAT (Western blot)” value (ucp1; cold, SPX-C intermediate between CTR and CTR-C, C × S p < 0.05) was “partial decrease in UCP1 levels”. The “mitDNA content in EAT” value (mitochondrial DNA; RT and cold) was “no changes”, the “mitDNA content in IAT” value (mitochondrial DNA; cold, SPX-C intermediate between CTR and CTR-C, C × S p < 0.01) was “partial inhibition, although no significant differences were found” and the “galr2 mRNA expression in EAT” value (galr2; S p < 0.01) was “decreased in both groups treated with SPX”. The “galr2 mRNA expression in IAT” value (galr2; S p < 0.01) was “decreased in both groups treated with SPX”, the “galr2 mRNA expression in BAT” value (galr2; Supplementary Figure S3) was “no differences were found” and the “ucp1, pgc1α, and prdm16 expressions in BAT” value (ucp1, pgc1α, and prdm16) was “decreased”. The “immunodetection of β3-adrenergic receptors in gonadal WAT” value (β3-adrenergic receptors) was “lower immunodetection”.
